Data: the nanobody polyreactivity screen of Harvey et al. (2022)

Test: yeast display, Sf9 membrane polyspecificity reagent, FACS + sequencing; frameworks hold sequencing errors
Method in brief: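 In a synthetic yeast display library (Saccharomyces cerevisiae BJ5465), nanobody expression was induced with galactose for 36–48 hours. FACS gates were set low and high (top ~1%) using anti-HA fluorescence for expression and streptavidin fluorescence for binding of the Sf9 membrane reagent. Each polyreactivity label is drawn from the gate of origin.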

| Sequence | polyreactivity (PSR sort gate) |
| --- | --- |
| QVQLVESVGGLVQAGGSLRLSCAASGITFYGYTMGWYIQAPGKERELVAAITSGGITYYADSVKGRFTISRDNAKNTVYLQMNSLKPEDTAVYYCAARRYCYTSITWYDYWGQGTQVTVSS | high polyreactivity |
| QVQLVESGGGLVQAGGSLRLSCAASGITFNSYTMGWYRQAPGKERELVAAISDNGGRTFYADSVKGRFTISRDNAKNTVYLQMNSLKPEDTAVYYCAAVVYSEYYYWGQGTQVTVSS | low polyreactivity |
| QVQLVESGGGLVQAGGSLRLSCAASGIIFDYYAMGWYRQAPGKERELVAAITTSGGRTYYADSVKGRFTISRDNAKNTVNFQMNSLKPEDTAVYYCAASRPSPRPRYGYWGQGTQVTVSS | high polyreactivity |
| QVQLVESGGGLVQAGGSLRLTCAASGRIFITNAMGWYSQAPGKEREMVAVISYIGGRTYYADSVKGRFTISRDNAKNTVYLQMNSLKPEDTAVYYCAARRSRPTYYSTGVNYWGQGTQVTVSS | high polyreactivity |
| QVQLVESGGGLVQAGGSLRLSCAASGFTFGYYAMGWYRQAPGKERELVAAINWSGVNTNYADSVKGRFTISRDNEKNTVYLQMNSLKPEDTAVYYCAADAGYDGYGYWGQGTQVTVSS | low polyreactivity |
| QVQLVESGGGLVQAGGSLRLSCAASGYIFWINAMGWYRHAPGKERDLVAAIRYSTGRTYYADSVKGRFTISRDNAKNTVYLQMNSLKPEDTAVYYCNARSWYIRGSQEYYYWGQGTQVTVSS | high polyreactivity |
| QVQLVESGGCLVQAGGSLRLSCAASGLTFKWNTMGWYRQAPGKESELVAAISWRVVSTYYADSVKGRFTISRDNAKNTVYLQMNSLKPEDTAVYYDYWGQGTQVTVSS | low polyreactivity |
| QVQLVESGGGLVQAGGSLRLSCAASGRTFDRNAMGWYRQAPGKERELVAAITSRGGRTYYADSVKGRFTISRDNAKNTVYLQMNSLKPEDTAVYYCAAQGRGHRFGDSRDNYWGQGTQVTVSS | high polyreactivity |
| QVQLVESGGGLVQAGGSLRLSCAASGSIFSVNTMGGYRQAPGKERELVADISSGDSTYYADSVKGRFTISRDNAKNTVYLQMNSLKPEDTAVYFCNADVYSWVSGKEGDYWGQGTQVTVSS | low polyreactivity |
| QVELVESGGGLVQAGGSLRLSCAASGSTFYRYAMGWYRQAPGKEREFVARIDWSDGSTNYADSVKGRFTISRDTAKNTVYLQMNSLKPEDTAVYYCAADTYYDTYDGEYEYWGQGTQVTVSS | low polyreactivity |
| QVQLVESGGGLVQAGGSLRLSCAASGRILVQNDMGWYRQEPGKERELVAAIRSDGSTSYADSVKGRFTISRDNAKNTVYLQMNSLKPEDTAFYYCAARIDWTGGEYDYWGQGTQVTVSS | low polyreactivity |
| QVQLVESGGGLVQAGGSLRLSCAASGRTFSYYAMGWYRQAPGKERELVAAIRRSSGTTYYADSVKGRFTISSDNAKNTVYLQMNSLKPEDTAVYYCNARSRRASIKRDYWGQGTQVTLSS | high polyreactivity |
| QVQLVESGGGLVQAGGSLRLSSAASGRIFAVYAMGLYRQAPGKERELVAAINWNDGSTYYADSVKGRFTISRDNAKNTVYLQMNSLKPEDTAVYYCAARALSRSVYGKSGYKYGYWGQGTQVTVSS | high polyreactivity |
| QVQLEESGGGLVQAGGSLRLSCAASGSTFSGYAMGWYIPAPGKERELVATIRRGGSTYADSVKGRFTISRDNAKNTVYLQMNSLKPEDTAVYYCAADAYVSSQPMDYWGQGTQVTVSS | high polyreactivity |
| QVQLVESGGGLVQAGGRLRLSCAASGSTFDVYAMGWYRQAPGKERELVAVINTSGTRTYYADSVKGRFTISRDNAKNTVYLQRNSLKPEDTAVYYCNAGGHLEMNYWGQGTQVTVSS | low polyreactivity |
| QVQLVESGGGLVQPGGSLRLSGAASGRILTYYAMGWYRQAPGKERELFAAISWRAGSTYYADSVKGRFTISRDNAKNTVYLQMNSLKPEDTAVYYCAAKPYYIPTRTYSHYNYWGQGTLVTVSS | high polyreactivity |
| QVQLVVSGGGLVQAAGSLRLSCAASGLTFANYVMGWYRQAPGKERELVASISISGGSTYYADSEKGRFTISRDNAKNTVYLQMNSLKPEDTAVYYCAASFVSSYQYAYWGQVTQVTVSS | high polyreactivity |
| QVQLVESGGGLVQAGGSLRLSCAASGYTFGINAMGWYRQAPGNERELVAAITTGGSTNYADSVKGRFTISRDNAKNTVYLQMNSLTPEDTAVYYCNASWDGWNANYWYPGAYYYWGQGTQVTVSS | low polyreactivity |
| QVQLVESGGGLVQAGGSLRLSCAASGRIFDDNAKGCYRQPPGKERELLASLTVSTGSTYYADSVKGRFTISRDTAKNTVYLQMNSLKPEDTAVYYCAAPYITPYGTYVFSSDYWGQGTQVTVSS | low polyreactivity |
| QVQLVESGGGLVQAGGSLRLSCAASGSTFGLYAMGWYSQAPGKEREMVAVISWRGGSTIYADSVKGRFTISRDNAKITVYLEMNSLKPEDTAVYYCNAKQSYYYPWRGYNYWGQGTQVTVSS | high polyreactivity |
| QVQLVESGGGLVQAGGSLRLSCAASGSILPYYAMGWYRQAPGKERELVAAISDSGGSTYYADSVKGRFTISRDNSKNTVYLQMNILKPEDTAVYYCNAVVRSTAHGYWGQGTQVTVSS | high polyreactivity |
| QVQLVESGGGLVQAGGSLRLSCAASGRIFVRNAMGWYRQAPGKERELVADITNGGSTNYADSVKGRFTISRDNAKNTVYLQMNSLNPEDTAVYYCAADTLGVYDGDYWGQGTQVTVSS | low polyreactivity |

| Sequence | polyreactivity (PSR sort gate) |
| --- | --- |
| QVQLVESGGGLVQAGGSLRLSCAASGSTFPSNVMGWYRQAPGKERELVAAITWSGGRTYYADSVKGRFTISRDNAKNTVYLQMNSLKPEDTAVYYCAVRSSYVRYDYWGKGTQVTVSS | high polyreactivity |
| QVQLVESGGGLVQAGGSLRLSCAASGSIFYRNAMGWYRQAPGKERELVAAISSSVSSTYYADSVKGRFTISRDNAKNTVYLQMNSLKPEDTAVYYCAARRVQRGGDYVYRYLYDYWGQGTQVTVSS | low polyreactivity |
| QVQLVESGGGLVQAGGSLRLSCAASGSTFYWYAMGWYRQAPGKEREFVAAISLGSGSTYYADSVKGRFTISRDNAKNTVYLQMNSLKPEDTAVYYCARRYPYPAYEYGYWGQGTQVTVSS | high polyreactivity |
| QVQLVESGGGLYQAGGSLRLSCAASGFILSTNVMGWYRQAPGKEREKVAAISARGGSTYYADSVKGRFTISRDNAKNTVYLQMNILKPEDTAVYYCAARVYVSRSKRLNYWGQGTQVTVSS | high polyreactivity |
| QVQLVESGGGLVQAGGSLRLSCAASGSTLTWNDMGWYRPAPGKERELVAAIDVNDGSTYYADSVKGRFTISRDNAKNTVYLQMNSLKPEDTAVYYCAEPTDYTWLDSTLADDYWGQGTQVTVSS | low polyreactivity |
| QVQLVESGGGLVQAGGSLRLSCAASGFTFVRYAMGWYRQAPGKEREFVASISARGGNTFYADSVKGRFTISRDNAKNTVYLQMNSLKPEDTAVYYCNALTYFKRSEYYWGQGTQVTVSS | high polyreactivity |
| QVQLVESAGGLVQAGGSLRLSCAASGTIFALYAMGWYRQAPGKERELVARITRGGGSTYYADSVKGRFTISRDNAKNTVYLQMNSLKPEDTAVYYCAAARWSQYRTWMNYWGQGTQVTVSS | high polyreactivity |
| QVQLVESGGGLVQAGGSLRLSCAASGSIFVTYALGWYRQAPGKERELVAAINSGGRTNYADSVKGRFTISRDNAKNTVYLQMNSLKPEDTAVYYCAATGRYFYPYYRYDYWGQGTQVTVSS | low polyreactivity |
| QVQLVESGGGLVQAGGSLRLSCAASGRTIKYYAMGWDRQAPGKERELVAVISWSGGSTYYADSVKGRFTISRDNAKNTVYLQMISLKPEDTAVYYCNAYVYAYYAGYNYWGQGTQVTVSS | high polyreactivity |
| QVQLVESGGGLFQAGGSLRLSCAASGSIFTPNTMGWYRKAPGKERELVAAITIRGGSTYYADSLKGRFTISRDNAKNTVYLQMNSLKPEDTAVYYCATEYALRYYLVDYWGQGTQVTVSS | low polyreactivity |
| QVQLVESGGGLVQAGGSLRLSCAASGIIFTDNAMGWYRQAPGKERELVATISWSTDNTYYADSVKGRFTISRDNAKNTVYLQMNSLKPEDTAVYYCAAEEYYAYWYQYDYWGQATQVTVSS | low polyreactivity |
| QVQLVESGGGLVQAGGSLRLSCAASGFTFAPYAMGWYRQAPGKERELVAAISSNGGSTYYADSVKGRFTISRDNAKNTVYLQMNSLKPGDTAVYYCAAPVRQSSYNRYDSWGQGTQVTVSS | high polyreactivity |
| QVQLVESGGGLVQAGGSLRLSCAASGFIFSYYAMGWYRQAPGKERELVAAITSNGGSTYYADSVKGRFTISRDNAKNTVYLQMNSLKPEDTAVYYCNVKYRYWNQGYGSWGQGTQVTVSS | high polyreactivity |
| QVQLVESGGGLVQAGGSLRLSCAASGIIFQRNDMGRYRQAPGKERELVANIRDGGITYADSVKGRFTISRDNAKNTVYLQMNSLKPEDTAVYYCARDDTSPGYGDQSSNAAYYYWGQGTQVTVSS | low polyreactivity |
| QDQLVESGGGLVQAGGSLRLSCAASGNTLAANAMGWYRQAPGKERELVAAITYSGGSTYYADSVKGRFTISRDNAKNTVYLQMSSLKPEDTSVYYCNAPYVFSAGFDYWGQGTQVTVSS | low polyreactivity |
| QVQLVESGAGLVQAGGSLRLSCAASGSIFDDYAMGWSRQAPGKESELVAAISSSGTSTYYADSVKGRFTISRDNAKNTVYLQMNSLKPEDTAVYYCNRGLAARVGSGDYWGQGTQVTVSS | low polyreactivity |
| QVQLVESGGGLVQAGGSRRLSCAASGSIFDYYVMGWYRQAPVKERELVAAISWSGASTYSADSVKGRFTISRDNAKNTVYLQMNSLKPEDTAVYYCAADYGVNTLIDYDYWGQGTQVTVSS | low polyreactivity |
| QVQLVESGGGLVQAGGSLRLSCAASGFIFWRYAMGWYRQAPGKDRELVAAISSTGRTYYADSVKGRFTISRDNAKNTVYLQMNSLKPEDTAVYYCNAAPVYLADPTRKYKADYWGQGTQVTVSS | low polyreactivity |
| QVQLVESGGGLVQAGGSLRLSCAASGRIFYSYTMGWYRQAPGKERELVAGINRSVGSTYYADSVKGRFTISRDNAKNTVYLQMNSLKPEDTAVYYCAAGSRRRSYYTFSSVHGHYYWGQGTQVTVSS | high polyreactivity |
| QVQLVESGGGLVQAGGSLRLSCAASGRTFGTYAMGWYRQAPGKQRELVAAISSGGSTYADSVKGRFTISRDNAKNTVYLQMNSLKPEDTAVYYCNADYRARNYHYYPRRFKYYYWGQGTQVTVSS | high polyreactivity |
| QVQLVESGGGLVQAGGSLRLSCAASGFIFYDYDMGWYRQAPGKEREFVAAITYSGGSTYYADSVKGRFTISRDNAKNTVYLQMNCLKPEDTAFYYCADVKSRYAEAVDYFYWGQGTHVTVSS | low polyreactivity |
